From patent publication US20060177831A1 (published 2006) come the findings set out here.

First the molecules themselves.
B1: Anti-c-MET Avimer monomer M13 (designed binder)
chain: CLADEFQCHSTKRCVPRHWLCDGVNDCEDGSDEKSCSQDPEFHKVSLQ
notes: Assayed protein also bears HA and 6His tags; also called C239
B2: Anti-c-MET Avimer monomer M20 (designed binder)
chain: CEADEFRCRSTGRCISVDWRCDGVSDCEDSSDEESCESTAPTSLQ
notes: Assayed protein also bears HA and 6His tags; also called C381
B3: Anti-c-MET Avimer monomer M21 (designed binder)
chain: CVSNEFTCRSTKRCVPQEWVCDGVNDCEDGSDETGCPKHTSLQ
notes: Assayed protein also bears HA and 6His tags; also called C382
B4: Anti-c-MET Avimer monomer M38 (designed binder)
chain: B3 chain
notes: Assayed protein also bears HA and 6His tags; also called C399
B5: c-MET extracellular domain (ECD)/Fc chimera (Fc fusion, not shown: a dimerising Fc or GST)
chain: ECKEALAKSEMNVNMKYQLPNFTAETPIQNVILHEHHIFLGATNYIYVLNEEDLQKVAEYKTGPVLEHPDCFPCQDCSSKANLSGGVWKDNINMALVVDTYYDDQLISCGSVNRGTCQRHVFPHNHTADIQSEVHCIFSPQIEEPSQCPDCVVSALGAKVLSSVKDRFINFFVGNTINSSYFPDHPLHSISVRRLKETKDGFMFLTDQSYIDVLPEFRDSYPIKYVHAFESNNFIYFLTVQRETLDAQTFHTRIIRFCSINSGLHSYMEMPLECILTEKRKKRSTKKEVFNILQAAYVSKPGAQLARQIGASLNDDILFGVFAQSKPDSAEPMDRSAMCAFPIKYVNDFFNKIVNKNNVRCLQHFYGPNHEHCFNRTLLRNSSGCEARRDEYRTEFTTALQRVDLFMGQFSEVLLTSISTFIKGDLTIANLGTSEGRFMQVVVSRSGPSTPHVNFLLDSHPVSPEVIVEHTLNQNGYTLVITGKKITKIPLNGLGCRHFQSCSQCLSAPPFVQCGWCHDKCVRSEECLSGTWTQQICLPAIYKVFPNSAPLEGGTRLTICGWDFGFRRNNKFDLKKTRVLLGNESCTLTLSESTMNTLKCTVGPAMNKHFNMSIIISNGHGTTQYSTFSYVDPVITSISPKYGPMAGGTLLTLTGNYLNSGNSRHISIGGKTCTLKSVSNSILECYTPAQTISTEFAVKLKIDLANRETSIFSYREDPIVYEIHPTKSFISGGSTITGVGKNLNSVSVPRMVINVHEAGRNFTVACQHRSNSEIICCTTPSLQQLNLQLPLKTKAFFMLDGILSKYFDLIYVHNPVFKPFEKPVMISMGNENVLEIKGNDIDPEAVKGEVLKVGNKSCENIHLHSEAVLCTVPNDLLKLNSELNIEWKQAISSTVLGKVIVQPDQNFT

Assay [1] deals with B5. Description: AlphaScreen competition with bn-HGF for c-MET ECD/Fc, NiNTA-pure. In general terms: Bead proximity is the source of the signal in Alpha formats.
In assay [2] the target is B5. Description: AlphaScreen competition with bn-HGF for c-MET ECD/Fc, Q-pure.
Assay [3] addresses B5. Description: binding ELISA on c-MET ECD/Fc, NiNTA-pure. On the technique in general: In an ELISA, binding on a coated surface is turned into a signal by an enzyme label.
Another assay has as its target recombinant human HGF (human, UniProt P14210 32-728). Description: cell-based or functional assay.

For orientation: IC50 means the concentration that gives 50% inhibition. Higher therefore signals a need for much substance. One may read the Kd as the concentration at which binding is half-saturated. Read a low Kd as higher affinity.

Chain of recombinant human HGF (P14210 32-728 limits assumed): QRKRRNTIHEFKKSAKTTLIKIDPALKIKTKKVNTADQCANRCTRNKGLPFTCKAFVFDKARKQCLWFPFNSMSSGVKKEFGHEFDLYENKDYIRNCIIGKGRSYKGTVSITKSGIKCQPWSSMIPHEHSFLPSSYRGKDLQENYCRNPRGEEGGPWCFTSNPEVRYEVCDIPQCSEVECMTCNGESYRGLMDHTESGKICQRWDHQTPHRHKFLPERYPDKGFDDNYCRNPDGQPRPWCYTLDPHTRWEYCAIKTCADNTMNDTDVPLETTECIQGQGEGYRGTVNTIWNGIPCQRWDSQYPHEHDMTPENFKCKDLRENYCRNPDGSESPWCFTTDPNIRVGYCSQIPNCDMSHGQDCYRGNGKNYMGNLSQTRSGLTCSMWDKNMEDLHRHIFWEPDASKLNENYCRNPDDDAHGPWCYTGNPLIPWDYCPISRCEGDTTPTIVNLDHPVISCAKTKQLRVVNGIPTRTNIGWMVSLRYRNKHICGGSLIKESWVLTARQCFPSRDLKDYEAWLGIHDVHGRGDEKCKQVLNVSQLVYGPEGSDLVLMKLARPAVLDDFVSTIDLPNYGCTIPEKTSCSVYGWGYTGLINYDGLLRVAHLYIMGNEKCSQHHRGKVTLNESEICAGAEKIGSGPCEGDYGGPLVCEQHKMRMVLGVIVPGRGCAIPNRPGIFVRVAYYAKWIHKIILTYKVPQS

Regarding B1, the IC50 in assay [1] came to 247 nM.
As for B2, the IC50 in assay [1] turned out to be 22 nM; in assay [2] it was 186 nM. For the same molecule, the Kd in assay [3] was found to be 158 nM.
In the case of B3, in assay [1], the IC50 turned out to be 83 nM. The affinity in assay [3], expressed as Kd, was 116 nM.
Regarding B4, the IC50 in assay [1] was 50 nM; in assay [2] it was 881 nM. For the same molecule, the Kd in assay [3] stood at 95 nM.
As for B5, in the assay with recombinant human HGF, the “IC50, inhibition of HGF-induced proliferation of serum-starved A549-SC cells (tritiated thymidine)” value amounted to 1.73 nM.
